According to patent US20230086871A1 (UNIVERSITY OF FREIBURG, published 2023):

Target: the molecule itself
Assay: negative-stain transmission electron microscopy and 2D classification of purified His-SYMREM1 (self-assembly)

B1: His-SYMREM1 (purified, recombinant Medicago truncatula SYMREM1 protein) (other)
chain: MEESKNKQLELVDTLTPLPQSESEPREFSYFLEEKEPGNEGTSSSVVKQERVVSDHATSSVDQTTAAGTDTKDSVDRDAVLARVESQKRLALIKAWEENEKTKVENRAYKMQSAVDLWEDDKKASIEAKFKGIEVKLDRKKSEYVEVMQNKIGEIHKSAEEKKAMIEAQKGEEILKVEETAAKFRTRGYQPRRLLGCFSGLRFFS
notes: also called Symbiotic Remorin 1; recombinant SYMREM1; not shown: N-terminal His tag and linker from the pDEST17 Gateway vector
B1: binds.
